Reference: US20230272099A1 (Chugai, published 2023)
Positions count from the first letter of the chain named.

T1: human FcgRIIb extracellular domain (human, UniProt P31994 43-217)
T1 construct: extracellular domain; also called hFcgRIIb
T1 sequence (looked up): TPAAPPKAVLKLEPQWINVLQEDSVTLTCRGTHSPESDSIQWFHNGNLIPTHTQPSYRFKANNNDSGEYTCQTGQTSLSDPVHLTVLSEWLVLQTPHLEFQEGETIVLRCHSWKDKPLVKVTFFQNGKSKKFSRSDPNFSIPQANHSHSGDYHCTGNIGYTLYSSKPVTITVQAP

T2: human FcgRIIa type R extracellular domain (human, UniProt P12318 34-217)
T2 construct: extracellular domain; also called hFcgRIIaR
T2 sequence (looked up): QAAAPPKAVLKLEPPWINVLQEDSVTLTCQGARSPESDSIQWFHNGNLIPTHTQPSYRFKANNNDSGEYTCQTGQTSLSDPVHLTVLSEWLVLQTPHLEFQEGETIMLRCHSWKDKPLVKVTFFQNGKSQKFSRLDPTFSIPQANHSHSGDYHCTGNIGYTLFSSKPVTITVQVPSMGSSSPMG

T3: human FcgRIIa type H extracellular domain (human, UniProt P12318 34-217)
T3 construct: extracellular domain; also called hFcgRIIaH
T3 sequence (looked up): T2 sequence (looked up) with R134H

B1: A375-SCF025/B167-Lamlib (antibody, human IgG1, lambda)
heavy: EVQLVESGGGLVKPGGSLRLSCAASGFTFSTFTMNWVRQAPGKGLEWVSSISSKSTYIEYADSFKVRFTISRDNAKNSLYLQMNSLRAEDTAVYYCARYGAKNFLNWVFDYWGQGTLVTVSSASTKGPSVFPLAPSSKSTSGGTAALGCLVKDYFPEPVTVSWNSGALTSGVHTFPAVLQSSGLYSLSSVVTVPSSSLGTQTYICNVNHKPSNTKVDKKVEPKSCDKTHTCPPCPAPELWNGPSVFLFPPKPKDTLMISRTPEVTCVVVDVSDEDPEVKFNWYVDGVEVHNAKTKPREELYNSTYRVVSVLTVLHQDWLNGKEYKCKVSNTALPKPIEKTISKAKGQRREPQVYTLPPSREEMTKNQVSLTCLVKGFYPSDIAVEWESNGQPENNYKTTPPVLDSDGSFFLYSKLTVKKSRWQQGNVFSCSVMHEALHNHYTQKSLSLSP
light: QSALTQPPSASGSPGQTVTISCTGTRYDVGYYEYVSWYQQHPGKAPKLMIYETSKRLSGVPDRFSGSKSGNTASLTVSGLQAEDEADYYCSSYRYEHQVSFGGGTKLTVLGQPKAAPSVTLFPPSSEELQANKATLVCLISDFYPGAVTVAWKADSSPVKAGVETTTPSKQSNNKYAASSYLSLTPEQWKSHRSYSCQVTHEGSTVEKTVAPTECS
B2: A375-SCF033/B167-Lamlib (antibody, human IgG1, lambda)
heavy: EVQLVESGGGLVKPGGSLRLSCAASGFTFSTFTMNWVRQAPGKGLEWVSSISSKSTYIEYADSFKVRFTISRDNAKNSLYLQMNSLRAEDTAVYYCARYGAKNFLNWVFDYWGQGTLVTVSSASTKGPSVFPLAPSSKSTSGGTAALGCLVKDYFPEPVTVSWNSGALTSGVHTFPAVLQSSGLYSLSSVVTVPSSSLGTQTYICNVNHKPSNTKVDKKVEPKSCDKTHTCPPCPAPEYLGDDSVFLFPPKPKDVLMISRTPEVTCVVVDVSHEDPEVKFNWYVDGVEVHNAKTKPREEQYNSTYRVVSVLPVLHRDWLNGKEYKCKVSNKALPKPIEKTISKAKGQRREPQVYTLPPSREEMTKNQVSLTCLVKGFYPSDIAVEWESNGQPENNYKTTPPVLDSDGSFFLYSKLTVDKSRWQQGNVFSCSVMHEALHNHYTQKSLSLSP
light: B1 light
B3: A375-SCF027/B167-Lamlib (antibody, human IgG1, lambda)
heavy: B2 heavy with D242G, V269I, R316Q, D418K
light: B1 light
B4: A375-SCF032/B167-Lamlib (antibody, human IgG1, lambda)
heavy: B2 heavy with D242G, V269I
light: B1 light
B5: A375-SCF028/B167-Lamlib (antibody, human IgG1, lambda)
heavy: B2 heavy with R316Q, D418K
light: B1 light
B6: A375-SCF025a/B167-Lamlib (antibody, human IgG1, lambda)
heavy: B1 heavy with K219R
light: B1 light
B7: A375-SCF030/B167-Lamlib (antibody, human IgG1, lambda)
heavy: B1 heavy with Q316R, K418D
light: B1 light

Each binder was assayed against T4, human FcgRIIIa F158 extracellular domain (human, UniProt P08637 17-208) (assay: SPR 25C).
T4 construct: extracellular domain; also called hFcgRIIIaF
T4 sequence (P08637 17-208): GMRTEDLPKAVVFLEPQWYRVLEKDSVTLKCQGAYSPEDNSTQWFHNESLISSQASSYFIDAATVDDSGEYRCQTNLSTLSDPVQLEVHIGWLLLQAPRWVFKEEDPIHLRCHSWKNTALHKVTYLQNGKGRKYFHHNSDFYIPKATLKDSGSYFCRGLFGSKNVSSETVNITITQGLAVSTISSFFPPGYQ
Protocol: (§1) Biacore T200 (GE Healthcare) was used to evaluate the binding activity to the respective human Fcγ receptor (hereafter referred to as FcγR). Measurement was performed at 25° C. using 50 mM phosphate, 150 mM NaCl, 0.05 w/v %-P20, pH 7.4 as buffer. About 1000 RU of antibody was captured using a sensor chip immobilized with CaptureSelect™ Human Fab-lambda Kinetics Biotin Conjugate (Thermo Fisher Scientific) as a molecule for ligand capturing. Human FcγR was diluted to 8 nM for FcγRIa and 1000 nM for other FcγR in the measurement buffer, and it was interacted to the captured antibody. The binding activity of each antibody to FcγR was assessed by calculating the binding amount of FcγR (RU) per unit amount of antibody using Biacore T200 Evaluation Software 2.0.

Binder | binding per 1RU antibody [RU] | relative binding (A375-G1T3/B167-Lamlib=1)
B1 | 0.0012 | 0.06
B2 | 0 | 0
B3 | -0.0005 | -0.02
B4 | -0.0007 | -0.03
B5 | -0.0009 | -0.04
B6 | 0.0009 | 0.04
B7 | 0.0017 | 0.08

The binders below were run against T1, human FcgRIIb extracellular domain (assay: SPR 25C).
Protocol: as §1

Binder | binding per 1RU antibody [RU] | relative binding (A375-G1T3/B167-Lamlib=1)
B1 | 0.0512 | 4.67
B2 | 0.0979 | 8.94
B3 | 0.0766 | 6.99
B4 | 0.0782 | 7.14
B5 | 0.0995 | 9.08
B6 | 0.0511 | 4.67
B7 | 0.0532 | 4.85

What follows are binders tested against T5, human FcgRIIIa V158 extracellular domain (human, UniProt P08637 17-208) (assay: SPR 25C).
T5 construct: extracellular domain; also called hFcgRIIIaV
T5 sequence (P08637 17-208 F176V): as the sequence (P08637 17-208) above, with F160V counted along it
Protocol: as §1

Binder | binding per 1RU antibody [RU] | relative binding (A375-G1T3/B167-Lamlib=1)
B1 | 0.0014 | 0.02
B2 | 0.0002 | 0
B3 | -0.0006 | -0.01
B4 | -0.0007 | -0.01
B5 | -0.001 | -0.01
B6 | 0.0016 | 0.02
B7 | 0.002 | 0.03

These binders were tested against T2, human FcgRIIa type R extracellular … (assay: SPR 25C).
Protocol: as §1

Binder | binding per 1RU antibody [RU] | relative binding (A375-G1T3/B167-Lamlib=1)
B1 | 0.0519 | 1.12
B2 | 0.0255 | 0.55
B3 | 0.0058 | 0.12
B4 | -0.0004 | -0.01
B5 | 0.0299 | 0.64
B6 | 0.0518 | 1.12
B7 | 0.0532 | 1.15

What follows are binders tested against T6, human FcgRIa extracellular domain (human, UniProt P12314 16-292) (assay: SPR 25C).
T6 construct: extracellular domain; also called hFcgRIa
T6 sequence (P12314 16-292): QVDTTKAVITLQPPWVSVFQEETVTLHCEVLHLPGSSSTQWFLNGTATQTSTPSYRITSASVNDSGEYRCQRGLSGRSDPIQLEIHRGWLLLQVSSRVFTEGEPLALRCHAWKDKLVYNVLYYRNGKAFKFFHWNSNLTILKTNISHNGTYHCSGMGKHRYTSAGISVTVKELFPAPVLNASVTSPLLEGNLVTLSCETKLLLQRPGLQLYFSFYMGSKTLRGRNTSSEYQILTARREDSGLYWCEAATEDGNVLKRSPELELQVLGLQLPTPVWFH
Protocol: as §1

Binder | binding per 1RU antibody [RU] | relative binding (A375-G1T3/B167-Lamlib=1)
B1 | 0.0022 | 0.03
B2 | 0.0033 | 0.04
B3 | 0.0044 | 0.05
B4 | 0.0049 | 0.06
B5 | 0.0027 | 0.03
B6 | 0.0021 | 0.03
B7 | 0.002 | 0.02

The binders below were run against T3, human FcgRIIa type H extracellular … (assay: SPR 25C).
Protocol: as §1

Binder | binding per 1RU antibody [RU] | relative binding (A375-G1T3/B167-Lamlib=1)
B1 | 0.0514 | 0.91
B2 | 0.0103 | 0.18
B3 | 0.0031 | 0.06
B4 | 0.003 | 0.05
B5 | 0.0101 | 0.18
B6 | 0.0514 | 0.91
B7 | 0.0533 | 0.94

What follows are binders tested against human FcRn (human, UniProt P55899 24-290; P61769 21-119) (assay: SPR 25C pH 6.0, steady state).
Chain of human FcRn (P55899 24-290 limits assumed, chain 1 of 2): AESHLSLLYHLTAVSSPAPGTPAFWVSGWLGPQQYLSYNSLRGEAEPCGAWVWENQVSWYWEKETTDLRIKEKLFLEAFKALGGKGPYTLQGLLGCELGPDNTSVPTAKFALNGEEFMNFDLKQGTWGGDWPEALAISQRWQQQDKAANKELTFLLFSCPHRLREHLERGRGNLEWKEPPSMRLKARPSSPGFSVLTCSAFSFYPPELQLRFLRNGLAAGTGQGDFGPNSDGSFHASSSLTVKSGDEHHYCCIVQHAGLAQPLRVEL
Chain of human FcRn (P61769 21-119 limits assumed, chain 2 of 2): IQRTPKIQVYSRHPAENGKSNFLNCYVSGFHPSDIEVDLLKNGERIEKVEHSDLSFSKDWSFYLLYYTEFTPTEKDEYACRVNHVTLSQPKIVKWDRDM
Protocol: Biacore T200 (GE Healthcare) was used to assess the binding activity to human FcRn. Measurement was performed at 25° C. using 50 mM phosphate, 150 mM NaCl, 0.05 w/v %-P20, pH 6.0 as buffer. Human FcRn proteins used for this determination were prepared by the procedure described in WO2010107110. About 400 RU of antibody was captured using a sensor chip immobilized with CaptureSelect™ Human Fab-lambda Kinetics Biotin Conjugate (Thermo Fisher Scientific) as a molecule for ligand capturing, followed by the binding of human FcRn diluted in measuring buffer. The activity of the respective antibodies to bind FcRn was assessed by calculating KD(mol/L) by the steady-state model using Biacore T200 Evaluation Software 2.0.

Binder | Kd [nM]
B1 | 1100
B2 | 874
B3 | 1330
B4 | 966
B5 | 1270
B6 | 1130
B7 | 863
